The text below walks through data of patent publication US20220127355A1 (INTEGRAL MOLECULAR, published 2022).

Assay [1] deals with T1, Claudin 9 (UniProt O95484 1-217).
T1 construct: Octet KD values: intact claudin protein embedded in virus-like particles (lipoparticles); also called CLDN9
T1 sequence (looked up): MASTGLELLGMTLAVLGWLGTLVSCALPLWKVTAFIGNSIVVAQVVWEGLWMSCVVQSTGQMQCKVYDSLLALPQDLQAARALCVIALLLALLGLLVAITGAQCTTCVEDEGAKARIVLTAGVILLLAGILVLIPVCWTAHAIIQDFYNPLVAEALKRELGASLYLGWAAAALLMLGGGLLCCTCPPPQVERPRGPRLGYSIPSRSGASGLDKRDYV
As to the kind of experiment: biosensor (Forte Octet), intact claudin in virus-like particles (lipoparticles). As for the experimental part:
Affinity of various antibodies against CLDN6 as compared to CLDN9, CLDN3, and CLDN4 was measured using a biosensor. Biosensor affinity measurement of the various antibodies against the proteins was determined using a Forte Octet, which was used for biosensor measurements, using intact claudin proteins embedded in virus-like particles (lipoparticles). The KD for different antibodies is shown below.
In general terms: In BLI a coated tip is dipped into the sample, and binding shifts an interference pattern.

For a further assay, the target named is T2, Claudin 4 (UniProt O14493 1-209).
T2 construct: also called CLDN4
T2 sequence (looked up): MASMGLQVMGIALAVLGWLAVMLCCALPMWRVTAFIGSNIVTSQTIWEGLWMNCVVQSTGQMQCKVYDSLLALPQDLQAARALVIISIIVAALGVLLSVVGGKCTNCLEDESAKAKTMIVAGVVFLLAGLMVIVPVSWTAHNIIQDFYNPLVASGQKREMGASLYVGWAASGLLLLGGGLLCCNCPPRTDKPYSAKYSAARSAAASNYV
Kind of assay: flow cytometry, HEK-293T cells transiently transfected with the indicated claudin; pUC19 = empty vector control. How it is done: (§1) FIG. 2 illustrates the results of a binding assay showing that Claudin 6 MAbs bind to human Claudin 6 preferentially over other Claudin proteins. Human embryonic kidney 293T (HEK-293T) cells were transiently transfected with DNA for the indicated Claudin protein or empty vector along with GFP (pUC) for 22 hours.
In general terms: A flow cytometer gives signals particle by particle.

The target in assay [2] is T3, Claudin 6 (human) (human, UniProt P56747 1-220).
T3 construct: Expressed on transfected HEK-293T cells or naturally on PA-1 cells for flow cytometry; For the Octet KD values it was the intact protein embedded in virus-like particles (lipoparticles); also called hsCLDN6; CLDN6
T3 chain: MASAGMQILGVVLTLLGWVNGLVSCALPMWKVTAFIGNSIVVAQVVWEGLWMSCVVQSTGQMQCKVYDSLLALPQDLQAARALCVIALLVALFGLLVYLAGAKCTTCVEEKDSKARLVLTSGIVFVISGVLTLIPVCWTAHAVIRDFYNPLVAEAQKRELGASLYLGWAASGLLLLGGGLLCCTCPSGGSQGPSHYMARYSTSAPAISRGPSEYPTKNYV
As to the kind of experiment: flow cytometry, HEK-293T cells transiently transfected with human Claudin 6 (hsCLDN6); pUC = empty vector control. As for the experimental part: FIG. 1 illustrates the results of a binding assay showing that Claudin 6 MAbs bind to human Claudin 6. Human embryonic kidney 293T (HEK-293T) cells were transiently transfected with DNA for human Claudin 6 (hsCLDN6) or empty vector along with GFP (pUC) for 22 hours. Claudin 6 MAbs (IM136, IM171, IM172, and IM173) were added at serial dilutions (0.0-10 μg/mL) and incubated for 90 min with shaking. After a wash step, secondary antibody for detection (allophycocyanin-conjugated mouse anti-human IgG Fc; Southern Biotech) was added and incubated for 30-45 min. Cells were washed, and fluorescence was detected by high-throughput Intellicyt flow cytometry, with gating by graphing forward scatter against side scatter. Data were analyzed in GraphPad Prism software based on the geometric mean of fluorescence intensity for the cell population in each well.

Assay [3] has as its target T3, Claudin 6 (human). As to the kind of experiment: flow cytometry, PA-1 cells naturally expressing Claudin-6.
Assay [4] concerns the target T1, Claudin 9. As to the kind of experiment: flow cytometry, HEK-293T cells transiently transfected with the indicated claudin; pUC19 = empty vector control. As for the experimental part: as §1

B1: IM171 (antibody, V domains shown)
VH: AVTLDESGGGLQTPGGALSLVCKASGFDFSSYAMNWVRQAPGKGLEWVAGIGSTGSSTGYGPAVKGRATISRDNGQSTLRLQLNNLRAEDTAIYYCAKSVGNGNSWSGYIATSIDAWGHGTEVIVSS
VL: ALTQPSSVSANLGGTVKLTCSGGSSGYGWYQQKSPGSAPVTVIYSNDKRPSDIPSRFSGSLSGSTGTLTITGVQADDEAVYFCGSTDNSYVGIFGAGTTLTVL
notes: Detected with anti-human IgG Fc secondary; also called LM171
For orientation: Kd means a measure of binding affinity in units of concentration. Read a low Kd as tighter binding. By EC50 (read off the curve) is commonly meant the concentration that produces a half-maximal response. The low end stands for greater potency, the high end for weaker potency. Regarding B1, the affinity with Claudin 9 [1], expressed as Kd, was 902 nM. For the same molecule, the binding result with Claudin 4 was “no binding (tested: log [mAb] about -7.2 M)”. The half-maximal effective concentration (EC50 (read off the curve)) with Claudin 6 (human) [2] was about 0.4 µg/mL; with Claudin 6 (human) [3], about 2 µg/mL.

B2: IM173 (antibody, V domains shown)
VH: AVTLDESGGGLQTPGGALSLVCKASGFTFSSYSMFWVRRAPGKGLEWVAGIDSGSTTFYGSAVKGRATISRDNGQSTVRLQLNNLRAEDTATYYCAKDAYGYCGWSGCSADSIDAWGHGTEVIVSS
VL: ALTQPSSVSANPGGTVEITCSGGNNYYGWYQQKSPGSAPVTVIYYNDKRPSDIPSRFSGSKSGSTGTLTITGVQADDEAVYFCGGWDSSGGIFGAGTTLTVL
notes: Detected with anti-human IgG Fc secondary
As for B2, the binding result with Claudin 9 [4] is “no binding (tested: log [mAb] about -7.2 M)”. Moreover, the “EC50 (read off the curve)” value with Claudin 6 (human) [2] was about 0.4 µg/mL.
